One assay has as its target HcAb.RR359.D107A. Put plainly: BLI. Background: BLI is a label-free optical method that tracks binding on a fibre tip over time.
The next assay has as its target HcAb.RR359.L110A. Put plainly: BLI.

B1: mEGFR-His recombinant protein (receptor)
chain: LEEKKVCQGTSNRLTQLGTFEDHFLSLQRMYNNCEVVLGNLEITYVQRNYDLSFLKTIQEVAGYVLIALNTVERIPLENLQIIRGNALYENTYALAILSNYGTNRTGLRELPMRNLQEILIGAVRFSNNPILCNMDTIQWRDIVQNVFMSNMSMDLQSHPSSCPKCDPSCPNGSCWGGGEENCQKLTKIICAQQCSHRCRGRSPSDCCHNQCAAGCTGPRESDCLVCQKFQDEATCKDTCPPLMLYNPTTYQMDVNPEGKYSFGATCVKKCPRNYVVTDHGSCVRACGPDYYEVEEDGIRKCKKCDGPCRKVCNGIGIGEFKDTLSINATNIKHFKYCTAISGDLHILPVAFKGDSFTRTPPLDPRELEILKTVKEITGFLLIQAWPDNWTDLHAFENLEIIRGRTKQHGQFSLAVVGLNITSLGLRSLKEISDGDVIISGNRNLCYANTINWKKLFGTPNQKTKIMNNRAEKDCKAVNHVCNPLCSSEGCWGPEPRDCVSCQNVSRGRECVEKCNILEGEPREFVENSECIQCHPECLPQAMNITCTGRGPDNCIQCAHYIDGPHCVKTCPAGIMGENNTLVWKYADANNVCHLCHANCTYGCAGPGLQGCEVWPSGPKIPS
B1: the off-rate (koff) (commonly the first-order rate constant of dissociation) is 0.00135 s⁻¹ with HcAb.RR359.D107A and 0.00425 s⁻¹ with HcAb.RR359.L110A.
